Among the data in article PMC7312448 are stoichiometry N values, retold here.

The assay deals with MavC (wild type) (L. pneumophila). The assay can be described thus: SEC.

On to MavC (wild type) (enzyme), for which the stoichiometry N is 2.
